Test results taken from patent publication US20250042997A1 (PHYLAXIS BIOSCIENCE, published 2025).

What was measured:
[1] = molecular target: T1, human Siglec-8 (full-length, on transfected CHO or 293 cells, or native on human eosinophils) (human, UniProt Q9NYZ4 17-499); experiment: cell-based or functional assay
[2] = molecular target: T1, human Siglec-8 (full-length, on …); experiment: flow cytometry on CHO cells transfected with human Siglec-8; labelled anti-human Fc-gamma secondary; Median RL1-H
Experimental: In additional studies, the parental llama G2 sequence was humanized and multivalent hzSiglec8-G2v14-Fc antibodies were cloned with a reduced effector function xELL human Fe. Binding of bivalent (ex11422; SEQ ID NO: 5 linked to an Fe xELL via linker 2), tetravalent (cx11580; SEQ ID NO: 9 linked to an Fe xELL via linker 2), and hexavalent (cx11579; SEQ ID NO: 10 linked to an Fe xELL via linker 2) hzSiglec8-G2v14-Fc antibodies were assessed by flow cytometry using CHO cells transfected with human Siglec-8. A titration series of the fusion proteins were incubated with the Siglec8-expressing CHO cells (5×10⁴ cells/well) for 30 minutes at 4° C. in FACS Buffer (PBS 1% BSA, 0.1% NaN3 pH 7.4) in 96 well plates. Following one 150 μL wash with FACS buffer, an APC-conjugated anti-human Fcγ specific secondary antibody (Jackson ImmunoResearch) was added, and cells were incubated for 30 minutes at 4° C. Following one additional wash in FACS buffer, bound antibodies were detected via flow cytometry (iQue Intellicyte).
The calculated affinity was similar between the bivalent, tetravalent, and hexavalent hzSiglec8-G2v14-Fc antibodies. The observed Bmax was reduced with increasing valency as anticipated, due the fact that the Fc portion of the antibody was detected in this assay and the ratio of Fc regions to anti-Siglec-8 binding domains is inverse to valency.

T1 sequence (Q9NYZ4 17-499): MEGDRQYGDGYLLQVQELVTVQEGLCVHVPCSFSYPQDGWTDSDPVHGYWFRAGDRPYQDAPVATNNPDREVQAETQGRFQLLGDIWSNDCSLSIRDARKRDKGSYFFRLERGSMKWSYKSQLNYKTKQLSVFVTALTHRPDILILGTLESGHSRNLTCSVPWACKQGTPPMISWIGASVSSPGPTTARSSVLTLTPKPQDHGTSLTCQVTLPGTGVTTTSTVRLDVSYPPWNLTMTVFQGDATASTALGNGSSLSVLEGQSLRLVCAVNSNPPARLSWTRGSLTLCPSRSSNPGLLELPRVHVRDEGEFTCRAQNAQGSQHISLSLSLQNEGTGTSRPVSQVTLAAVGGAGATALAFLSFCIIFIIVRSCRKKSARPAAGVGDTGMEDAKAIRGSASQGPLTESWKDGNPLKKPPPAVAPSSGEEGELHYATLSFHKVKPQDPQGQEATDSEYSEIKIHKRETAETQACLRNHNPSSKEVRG

B1: tetravalent hzSiglec8-G2v14-Fc (xELL) (Fc fusion)
chain: EVQLLESGGGEVQPGGSLRLSCAASGSISIFSMYVVAWYRQAPGKEREWVAFIQRGGTANYAESAKGRFTISRDNAKNTVYLQMSSLRAEDTAVYYCNYINTDNEIGGPWGQGTLVTVKPGGSGGSEVQLLESGGGEVQPGGSLRLSCAASGSISIFSMYVVAWYRQAPGKEREWVAFIQRGGTANYAESAKGRFTISRDNAKNTVYLQMSSLRAEDTAVYYCNYINTDNEIGGPWGQGTLVTVKPGGGGDKTHTCPPCPAPGGPSVFLFPPKPKDTLMISRTPEVTCVVVDVSHEDPEVKFNWYVDGVEVHNAKTKPREEQYNSTYRVVSVLTVLHQDWLNGKEYKCKVSNKALPAPIEKTISKAKGQPREPQVYTLPPSRDELTKNQVSLTCLVKGFYPSDIAVEWESNGQPENNYKTTPPVLDSDGSFFLYSKLTVDKSRWQQGNVFSCSVMHEALHNHYTQKSLSLSPGK
notes: Homodimer through the Fc; also called cx11580
potency of eosinophil killing in the presence of IL-5, fold improvement over the afucosylated AK002 analog [1]: ~30 fold
potency of eosinophil killing in the presence of IL-5, fold increase compared to bivalent hzSiglec8-G2v14-Fc [1]: 10 fold
EC50 (read off the curve) [2]: ~0.04 nM
